Assay [1] addresses T1, human IL-5 with his-tag (rhIL-5-his) (human, UniProt P05113 20-134).
T1 sequence: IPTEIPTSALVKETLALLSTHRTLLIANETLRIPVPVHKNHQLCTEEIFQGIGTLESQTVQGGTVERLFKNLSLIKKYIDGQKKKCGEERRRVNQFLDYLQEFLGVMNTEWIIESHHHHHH
As to the kind of experiment: cell-based or functional assay.

Assay [2] concerns the target T1, human IL-5 with his-tag (rhIL-5-his). As to the kind of experiment: Biacore T200, antibody captured on protein A chip, antigen in flow, 1:1 Langmuir. Here is the method: The affinity of the humanized IL-5 antibody to be tested with human IL-5 was measured by Biacore T200 (GE) instrument.
The protein A biosensor chip was used to affinity capture of the molecules to be tested, and then the antigen (prepared in Example 1) flowed through the surface of the chip, and the reaction signal was detected in real time with the Biacore T200 instrument to obtain the binding and dissociation curves. After the dissociation of each experimental cycle was completed, the biosensor chip was washed and regenerated with glycine-hydrochloric acid regeneration solution (pH 1.5). BIA evaluation version 4.1 GE software was used to fit the data against (1:1) Langmuir model, and the affinity value was obtained and shown in Table 14.
For orientation: Surface plasmon resonance follows binding to a sensor surface in real time, without labels.

Assay [3] has the same target. Nature of the assay: cell-based or functional assay. This is another data set of the same source.
Assay [4] shares this target. As to the kind of experiment: FACS blocking: biotin-IL-5 (100 ng/ml) binding to IL-5Rα/β-CHOS cells, antibody diluted. The method, then: Particular method was as follows: CD-CHO comprising […] and […] zeozin was used to culture CHO-S-IL-5Rα and β. During cell culture, the concentration should not exceed 3×10⁶ cells/ml. IL-5Rα/β-CHOS cells in good condition were centrifuged (at 1000 rpm, 5 min), and washed once with 10% FBS in PBS, and the cells were counted, the cell concentration was adjusted to 4×10⁶ cells/ml, and 25 μl was taken out and added into a round-bottom 96-well plate. The antibody to be tested was diluted with PBS solution comprising 10% FBS. The initial concentration was 200 μg/ml, and diluted at 1:10 for 8 gradient dilutions. 25 μl of 100 ng/ml IL-5 labeled by a biotin labeling kit (Tojin Chemical, LK03) was added, and fully mixed with 50 μl of diluted antibody at each concentration, and added into 96-well plate that has been added with cells, and incubated at 4° C. for 1 hour. After the incubation, the sample was centrifuged at 4° C. (400 g, 5 min), and the supernatant was removed, the plated was washed with 200 μl of pre-cooled PBS by centrifugation, repeated for twice; PE-Avidin secondary antibody diluted at 1:1333 was added and incubated in the dark at 4° C. for 40 min, centrifuged at 4° C.

The target in a further assay is T2, IL3 (203-IL-050/CF) (UniProt P08700 20-152).
T2 sequence (looked up): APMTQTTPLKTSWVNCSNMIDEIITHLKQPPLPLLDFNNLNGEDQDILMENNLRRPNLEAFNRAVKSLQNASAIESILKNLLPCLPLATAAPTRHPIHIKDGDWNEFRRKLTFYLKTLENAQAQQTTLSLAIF
Nature of the assay: Fortebio biolayer interferometry: antibody captured on Protein A biosensor, 40 nM cytokine injected; signal relative to IL-5 = 100%. The method, then: (§1) IL-5 was one of Th2 cytokines.
(§2) In particular: Protein A Biosensor (PALL Fortebio, 18-5010) was used to capture the antibody, the capture signal was recorded, and then 40 nM each cytokine was injected, the new binding signal was recorded. Finally, the binding signal with IL-5 was defined as 100%.
On the technique in general: Biolayer interferometry detects binding as a change in optical thickness at a sensor tip.

The target of assay [5] is GMCSF (R&D, 215-GM-010/CF) (UniProt P04141 18-144). The description is as above. The method, then:
as §1, §2

Assay [6] concerns the target IL6 (R&D, 7270-IL-025/CF) (UniProt P05231 30-212, limits assumed). The assay is described as above. Here is the method:
as §1, §2

Another assay has as its target IL9 (R&D, 209-IL-010/CF) (UniProt P15248 19-144). Described as above. Here is the method:
as §1, §2

The target in a further assay is T3, IFNgamma (UniProt P01579 24-166, limits assumed).
T3 sequence (looked up): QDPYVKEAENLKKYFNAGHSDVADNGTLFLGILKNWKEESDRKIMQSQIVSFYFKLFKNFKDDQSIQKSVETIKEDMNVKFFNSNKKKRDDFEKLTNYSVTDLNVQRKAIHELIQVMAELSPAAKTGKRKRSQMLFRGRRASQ
Described as above. Here is the method: as §1, §2

Assay [7] concerns the target T4, IL31 (R&D, 2824-IL-010/CF) (UniProt Q6EBC2 24-164).
T4 sequence (looked up): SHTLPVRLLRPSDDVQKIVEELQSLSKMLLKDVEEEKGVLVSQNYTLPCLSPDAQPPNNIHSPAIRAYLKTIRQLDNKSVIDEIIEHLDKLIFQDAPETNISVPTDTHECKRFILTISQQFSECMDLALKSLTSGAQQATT
Described as above. The method, then:
as §1, §2

Assay [8] addresses T5, IL25 (R&D, 8134-IL-025/CF) (UniProt Q9H293 33-177).
T5 sequence (looked up): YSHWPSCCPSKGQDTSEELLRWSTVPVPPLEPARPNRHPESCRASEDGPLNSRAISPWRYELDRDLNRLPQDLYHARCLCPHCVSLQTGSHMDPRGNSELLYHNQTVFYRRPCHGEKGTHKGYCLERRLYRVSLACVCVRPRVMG
The assay is described as above. The method, then:
as §1, §2

The target in another assay is IL2 (R&D, 202-IL-010/CF) (UniProt P60568 21-153). The assay is described as above. The method, then: as §1, §2
Chain of IL2 (R&D, 202-IL-010/CF) (P60568 21-153 limits assumed): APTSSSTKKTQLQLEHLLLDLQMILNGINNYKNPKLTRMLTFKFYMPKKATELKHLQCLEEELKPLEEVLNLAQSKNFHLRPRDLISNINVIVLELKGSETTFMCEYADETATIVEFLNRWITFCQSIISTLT
Assay [9] concerns the target IL13 (R&D, 213-ILB-025/CF) (UniProt P35225 35-146). Described as above. The method, then: as §1, §2
For the next assay, the target named is T6, IL4 (R&D, 204-IL-050/CF) (UniProt P05112 25-153).
T6 sequence (looked up): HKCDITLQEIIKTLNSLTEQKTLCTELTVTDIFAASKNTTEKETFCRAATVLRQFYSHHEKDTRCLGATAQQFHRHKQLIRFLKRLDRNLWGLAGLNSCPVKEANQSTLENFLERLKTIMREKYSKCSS
The description is as above. Here is the method: as §1, §2

Assay [10] deals with IL10 (R&D, 217-IL-025/CF) (UniProt P22301 19-178). The assay is described as above. The method, then: as §1, §2
Chain of IL10 (R&D, 217-IL-025/CF) (P22301 19-178 limits assumed): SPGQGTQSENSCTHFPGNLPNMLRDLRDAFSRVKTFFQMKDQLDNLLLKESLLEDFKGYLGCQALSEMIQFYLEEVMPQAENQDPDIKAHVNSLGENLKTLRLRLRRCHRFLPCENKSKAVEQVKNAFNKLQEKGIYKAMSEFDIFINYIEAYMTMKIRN

Chain of IL13 (R&D, 213-ILB-025/CF) (P35225 35-146 limits assumed): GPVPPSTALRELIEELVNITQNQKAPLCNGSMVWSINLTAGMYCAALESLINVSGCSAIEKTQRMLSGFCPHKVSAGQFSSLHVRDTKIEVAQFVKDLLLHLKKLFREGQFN
Chain of GMCSF (R&D, 215-GM-010/CF) (P04141 18-144 limits assumed): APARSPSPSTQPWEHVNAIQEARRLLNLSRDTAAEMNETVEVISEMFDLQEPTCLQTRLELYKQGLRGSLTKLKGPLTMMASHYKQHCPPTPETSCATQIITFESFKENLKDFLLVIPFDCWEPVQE
Chain of IL9 (R&D, 209-IL-010/CF) (P15248 19-144 limits assumed): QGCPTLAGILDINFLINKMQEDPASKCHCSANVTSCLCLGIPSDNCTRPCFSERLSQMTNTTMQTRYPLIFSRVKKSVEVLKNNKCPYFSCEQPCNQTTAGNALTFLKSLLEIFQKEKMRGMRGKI

B1: h1780-017 (antibody, human IgG1, kappa, V domains shown)
VH: EVQLVQSGAEVKKPGASVKVSCKASGYTFTEYLIHWVRQAPGQGLEWIGYINPYSGGTVYNEKFKSRATLTVDKSISTAYMEFSRLRSDDTAVYYCARDGGYSDPLDYWGQGTMVTVSS
VL: DTVLTQSPATLSLSPGERATLSCRASEGLTSYMHWYQQKPGQAPRLLIYKASNLASGVPARFSGSGSGTDFTLTISSLEPEDFATYFCQQNWNDPWTFGGGTKVEIKR
In general, Kd refers to the constant that tells how readily two partners part at equilibrium. A low value points to higher affinity. In general, IC50 refers to the concentration that gives 50% inhibition. For the molecule B1, in assay [1], the “IC50 of inhibition of IL-5 induced TF1 cell proliferation” value is 0.16 nM. Moreover, in assay [2], the Kd worked out at 0.0778 nM. For the same molecule, the “IC50 of blocking IL-5 induced eosinophil adhesion” value in assay [3] turned out to be 0.0212 µg/mL. Besides, in [4], the IC50 came to 0.016 µg/mL.

B2: h1706-009 (antibody, human IgG1, kappa, V domains shown)
VH: EVQLVESGGGLVQPGGSLRLSCAASGFTFSHYYMAWVRQAPGKGLEWVSSINYEGNSAYYGDSVKGRFTISRDNSKNTLYLQMNSLRAEDTAVYYCATETLRESLDYWGQGTMVTVSS
VL: DIQMTQSPSSVSASVGDRVTITCRASQDIGNYLSWYQQKPGKSPKLMIYSASNLEVGVPSRFSGSGSGTDYTLTISSLQPEDFATYFCLQHKQFPRTFGGGTKVEIKR
Turning to B2, the “IC50 of inhibition of IL-5 induced TF1 cell proliferation” value in assay [1] was 0.25 nM. The equilibrium dissociation constant (Kd) in assay [2] turned out to be 0.0545 nM. Further, in assay [3], the “IC50 of blocking IL-5 induced eosinophil adhesion” value was 0.0043 µg/mL. In assay [4], the IC50 was found to be 0.0247 µg/mL. In addition, the binding result with IL3 (203-IL-050/CF) was “no binding (tested: 40 nM)”; in assay [5], “no binding (tested: 40 nM)”; in assay [6] it was “no binding (tested: 40 nM)”; in the assay with IL9 (R&D, 209-IL-010/CF), “no binding (tested: 40 nM)”; in the assay with IFNgamma, “no binding (tested: 40 nM)”; in assay [7], “no binding (tested: 40 nM)”. Also, the binding result was “no binding (tested: 40 nM)” in assay [8]; “no binding (tested: 40 nM)” with IL2 (R&D, 202-IL-010/CF); “no binding (tested: 40 nM)” in assay [9]; “no binding (tested: 40 nM)” with IL4 (R&D, 204-IL-050/CF); “no binding (tested: 40 nM)” in assay [10].

B3: h1705-008 (antibody, human IgG1, kappa, V domains shown)
VH: EVQLVESGGGLVQPGGSLRLSCAASGFTFSHYYMAWVRQAPGKGLEWVTSISYEGDITYYGDSVKGRFTISRDNSKNTLYLQMNSLRAEDTATYYCASQTLRESFDYWGQGTLVTVSS
VL: DIQMTQSPSSVSASVGDRVTITCRASQDIANYLSWYQQKPGKSPKLLIYGTSNLEVGVPSRFSGSRSGTDFTLTISSLQPEDFATYYCLQDKEFPRTFGGGTKVEIKR
notes: IgG1 with M252Y/S254T/T256E, kappa
For B3, in assay [1], the “IC50 of inhibition of IL-5 induced TF1 cell proliferation” value is 0.2 nM. In addition, in [2], the equilibrium dissociation constant (Kd) amounted to 0.0342 nM. In addition, the “IC50 of blocking IL-5 induced eosinophil adhesion” value in assay [3] is 0.00485 µg/mL. Besides, the half-inhibitory concentration (IC50) in assay [4] was found to be 0.0145 µg/mL. Also, the binding result with IL3 (203-IL-050/CF) is listed as “no binding (tested: 40 nM)”; in assay [5], “no binding (tested: 40 nM)”; in assay [6] it was “no binding (tested: 40 nM)”; with IL9 (R&D, 209-IL-010/CF), “no binding (tested: 40 nM)”; with IFNgamma, “no binding (tested: 40 nM)”; in assay [7], “no binding (tested: 40 nM)”. Also, the binding result in assay [8] was “no binding (tested: 40 nM)”; in the assay with IL2 (R&D, 202-IL-010/CF), “no binding (tested: 40 nM)”; in [9] it was “no binding (tested: 40 nM)”; in the assay with IL4 (R&D, 204-IL-050/CF), “no binding (tested: 40 nM)”; in [10] it was “no binding (tested: 40 nM)”.

(Values after patent publication US20220144937A1 (JIANGSU HENGRUI MEDICINE, published 2022).)
